Test results: patent publication US20050070689A1 (Genentech, published 2005)
Blank lines part the entries; values can stand above or below the binder they belong to.

What was measured:
AP-TALL-1 = target: T1, AP-TALL-1 (human, UniProt Q9Y275 136-285); assay: AP-TALL-1 binding to transfected cells
T1 construct: Used as conditioned medium of transfected 293 cells; AP is at the N-terminus of TALL-1; Flag precedes AP (as described for AP-APRIL); not shown: human placental alkaline phosphatase (AP), amplified from pAPtag-5

[1] = target: T2, APRIL (full length cDNA clone without Flag tag) expressed on transfected COS 7 cells (human, UniProt O75888 105-250); assay: receptor-Fc staining of transfected COS 7 cells, biotinylated anti-human antibody and Cy3-streptavidin
T2 construct: also called APRIL-transfected COS 7 cells
T2 sequence: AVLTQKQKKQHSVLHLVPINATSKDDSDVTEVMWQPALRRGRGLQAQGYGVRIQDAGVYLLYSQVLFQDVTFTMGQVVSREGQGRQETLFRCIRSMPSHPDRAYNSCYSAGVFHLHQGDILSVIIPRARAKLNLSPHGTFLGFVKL
Procedure: Transfected COS 7 cells were subsequently incubated with TACI.ECD.hFC immunoadhesin, hBr3-hFc, or mBR3-hFc (prepared as described above). Cells were incubated with the TACI ECD-IgG (or a TNFR1-IgG construct prepared as described in Ashkenazi et al., Proc. Natl. Acad. Sci., 88:10535-10539 (1991)) at 1 μg/ml for 1 hour in PBS. Cells were subsequently washed three times with PBS and fixed with 4% paraformaldehyde in PBS. Cell staining was visualized by incubation with biotinylated goat anti-human antibody (Jackson Labs, at 1:200 dilution) followed by Cy3-streptavidin (Jackson Labs, at 1:200 dilution). Murine BR3-Fc, like hBR3-hFc, also only bound TALL-1-transfected but not APRIL-transfected COS 7 cells (data not shown). […] In contrast, TACI-hFc fusion protein bound cells transfected with either TALL-1 or APRIL (FIG. 10).

[2] = target: T3, human BR3 expressed on transfected COS 7 cells (human, UniProt Q96RJ3 1-184); assay: figure legend: AP-ligand conditioned medium on transfected COS 7 cells, in situ AP staining
T3 construct: also called hBR3
T3 sequence: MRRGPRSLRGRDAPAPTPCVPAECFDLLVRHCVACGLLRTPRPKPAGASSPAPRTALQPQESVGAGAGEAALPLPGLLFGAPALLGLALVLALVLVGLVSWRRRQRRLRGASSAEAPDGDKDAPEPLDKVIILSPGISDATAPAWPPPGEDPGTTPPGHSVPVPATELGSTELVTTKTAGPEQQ
Procedure: (a) COS 7 transfected with hBR3 (1,2) or TACI (3,4) were incubated with conditioned medium containing AP-TALL-1 (1,3) or AP-April (2,4). Cells were washed, fixed, and stained for the AP activity in situ. (b) COS7 cells transfected with TALL-1 (1,2) or April (3,4) were incubated with hBR3-hFc (1,3) or TACI-hFc (2,4). Cells were washed, fixed, and bound receptor-hFc protein was detected using a biotinylated goat anti-human antibody followed by Cy3-streptavidin. (c) BR3-hFc (1,2) or TACI-hFc (3,4) was incubated with Flag-TALL-1 (1,3) or Flag-April (2,4). The receptor-Fc fusion proteins precipitated with protein-A-agarose were subjected to immunoblotting with anti-Flag antibody. Equivalent amounts of ligand (middle panel) or receptor-hFc (bottom) were used in the binding experiment. (d) 293E cells (Invitrogen) were transfected with 0.25 ug of a NF-kB luciferase reporter gene construct, 25 ng pRL-TK, and indicated amounts of expression constructs encoding hBR3, mBR3, TACI and BCMA. NF-kB activation was determined 20-24 hours later using the Dual-Luciferase reporter assay kit (Promega).

[3] = target: T4, human TACI (265 amino acid form) expressed on transfected COS 7 cells (human, UniProt O14836 1-258); assay: AP-ligand conditioned medium on transfected COS 7 cells, in situ AP staining
T4 construct: also called hTACI (265)
T4 sequence: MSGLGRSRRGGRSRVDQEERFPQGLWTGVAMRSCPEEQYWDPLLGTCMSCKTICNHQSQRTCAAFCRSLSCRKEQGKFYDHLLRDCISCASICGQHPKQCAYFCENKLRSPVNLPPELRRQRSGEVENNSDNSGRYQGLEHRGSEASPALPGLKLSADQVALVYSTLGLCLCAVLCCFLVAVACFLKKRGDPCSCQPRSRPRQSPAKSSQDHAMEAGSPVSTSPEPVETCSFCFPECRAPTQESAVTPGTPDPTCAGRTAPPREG

[4] = target: T5, murine BR3 expressed on transfected COS 7 cells (murine, UniProt Q9D8D0 1-175); assay: as above
T5 construct: also called mBR3
T5 sequence: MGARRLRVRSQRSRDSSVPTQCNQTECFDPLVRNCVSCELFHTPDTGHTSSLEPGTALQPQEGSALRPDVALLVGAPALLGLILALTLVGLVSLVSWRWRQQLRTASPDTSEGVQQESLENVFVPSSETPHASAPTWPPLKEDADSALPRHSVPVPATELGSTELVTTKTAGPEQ

[5] = target: T6, TACIs expressed on transfected COS 7 cells (human, UniProt O14836 1-292); assay: AP-APRIL staining of transfected cells, in situ AP activity
T6 sequence: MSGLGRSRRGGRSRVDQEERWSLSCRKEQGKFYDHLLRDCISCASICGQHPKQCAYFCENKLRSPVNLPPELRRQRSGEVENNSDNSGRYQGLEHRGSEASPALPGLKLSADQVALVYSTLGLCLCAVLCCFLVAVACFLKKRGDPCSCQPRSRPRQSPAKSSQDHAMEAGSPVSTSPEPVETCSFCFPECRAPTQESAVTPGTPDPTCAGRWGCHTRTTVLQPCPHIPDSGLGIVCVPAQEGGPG

T1 sequence (Q9Y275 136-285): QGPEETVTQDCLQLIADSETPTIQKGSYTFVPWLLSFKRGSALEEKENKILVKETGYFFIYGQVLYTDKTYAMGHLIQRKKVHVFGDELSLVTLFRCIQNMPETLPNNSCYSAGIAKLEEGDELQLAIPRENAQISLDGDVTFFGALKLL

binding result (AP-TALL-1): binds
B1: BCMA expressed on transfected cells (receptor)
chain: MLQMAGQCSQNEYFDSLLHACIPCQLRCSSNTPPLTCQRYCNASVTNSVKGTNAILWTCLGLSLIISLAVFVLMFLLRKISSEPLKDEFKNTGSGLLGMANIDLEKSRTGDEIILPRGLEYTVEECTCEDCIKSKPKVDSDHCFPLPAMEEGATILVTTKTNDYCKSLPAALSATEIEKSISAR
notes: The expression construct is only called 'BCMA'; also called BCMA-transfected cells

binding result [1]: no binding
B2: Murine BR3-Fc (Fc fusion)
chain: MGARRLRVRSQRSRDSSVPTQCNQTECFDPLVRNCVSCELFHTPDTGHTSSLEPGTALQPQEGSALRPDVA
notes: Only 'prepared as described above' is said; also called mBR3-hFc; not shown: human IgG1 Fc region

binding result [2]: no binding
binding result [3]: binds
binding result [4]: no binding
binding result [5]: binds
B3: AP-APRIL (ligand)
chain: T2 sequence
notes: APRIL fused C-terminally to AP, AP fused C-terminally to Flag; not shown: human placental alkaline phosphatase (AP)
